Here are results for three molecules from article PMC7261175, “A splice site-sensing conformational switch in U2AF2 is modulated by U2AF1 and its recurrent myelodysplasia-associated mutation” (Nucleic Acids Research, 2019).

One data set deals with U2AF1 UHM (dZn);U2AF2 (human;human, UniProt Q01081;P26368-2 43-146;85-471, C67S|). The data set is described as follows: fluorescence anisotropy; Kd shown in figure only; Anisotropy: 150 mM NaCl, 25 mM HEPES pH 6.8, 0.5 mM TCEP, 3% glycerol, 20 uM ZnCl2, 0.2 U/ul SUPERase-In; smFRET: 25 mM HEPES pH 7.0, 150 mM KCl, 0.01% octaethylene glycol monododecyl ether, 0.2 mM TCEP, 6 mM BME, 1.5 mM Trolox, oxygen scavenger, room temperature, excess U2AF1 (1000 nM) with heterodimer. To be noted: protein: recombinant;recombinant; tags: GST cleaved by TEV;GST cleaved by PreScission; copies: 1;1; label: 5'-fluorescein. (In general: Fluorescence polarisation rises when a labelled molecule tumbles more slowly, as on binding a larger partner.)

For another data set, the target named is U2AF1 untagged;U2AF2 (human;human, UniProt Q01081;P26368-2 1-193;85-471, |). The data set is described as follows: fluorescence anisotropy; Kd in figure only; tag has no significant influence; Anisotropy: 150 mM NaCl, 25 mM HEPES pH 6.8, 0.5 mM TCEP, 3% glycerol, 20 uM ZnCl2, 0.2 U/ul SUPERase-In; smFRET: 25 mM HEPES pH 7.0, 150 mM KCl, 0.01% octaethylene glycol monododecyl ether, 0.2 mM TCEP, 6 mM BME, 1.5 mM Trolox, oxygen scavenger, room temperature, excess U2AF1 (1000 nM) with heterodimer. To be noted: protein: recombinant;recombinant; tags: MBP cleaved by TEV; GSGGGGS linker remains;GST cleaved by PreScission; copies: 1;1; label: 5'-fluorescein.

In a further data set the target is His6SumoMBP-U2AF1;U2AF2 (human;human, UniProt Q01081;P26368-2 1-188;85-471, C67S|). The data set is described as follows: fluorescence anisotropy; Anisotropy: 150 mM NaCl, 25 mM HEPES pH 6.8, 0.5 mM TCEP, 3% glycerol, 20 uM ZnCl2, 0.2 U/ul SUPERase-In; smFRET: 25 mM HEPES pH 7.0, 150 mM KCl, 0.01% octaethylene glycol monododecyl ether, 0.2 mM TCEP, 6 mM BME, 1.5 mM Trolox, oxygen scavenger, room temperature, excess U2AF1 (1000 nM) with heterodimer. To be noted: protein: recombinant;recombinant; tags: N-terminal His6-SUMO-MBP with AAA linker; C-terminal extra Ala;GST cleaved by PreScission; copies: 1;1; label: 5'-fluorescein.

For data set [1], the target named is U2AF2 Cy3/Cy5 isolated subunit (human, UniProt P26368-2 113-342, A181C;C305A;Q324C). The data set is described as follows: smFRET; RNA tethered; preferentially open; Anisotropy: 150 mM NaCl, 25 mM HEPES pH 6.8, 0.5 mM TCEP, 3% glycerol, 20 uM ZnCl2, 0.2 U/ul SUPERase-In; smFRET: 25 mM HEPES pH 7.0, 150 mM KCl, 0.01% octaethylene glycol monododecyl ether, 0.2 mM TCEP, 6 mM BME, 1.5 mM Trolox, oxygen scavenger, room temperature, excess U2AF1 (1000 nM) with heterodimer. To be noted: protein: recombinant, tags: His6 and T7 tags, label: biotin on annealed DNA.

The target in data set [2] is T1, His6SumoMBP-U2AF1 S34F;U2AF2 Cy3/Cy5 (human;human, UniProt Q01081;P26368-2 1-188;85-342, S34F;C67S|A181C;C305A;Q324C). The data set is described as follows: smFRET; RNA tethered; slightly more open than DEK(-3U); Anisotropy: 150 mM NaCl, 25 mM HEPES pH 6.8, 0.5 mM TCEP, 3% glycerol, 20 uM ZnCl2, 0.2 U/ul SUPERase-In; smFRET: 25 mM HEPES pH 7.0, 150 mM KCl, 0.01% octaethylene glycol monododecyl ether, 0.2 mM TCEP, 6 mM BME, 1.5 mM Trolox, oxygen scavenger, room temperature, excess U2AF1 (1000 nM) with heterodimer. To be noted: protein: recombinant;recombinant; tags: N-terminal His6-SUMO-MBP with AAA linker; C-terminal extra Ala;GST cleaved; Cy3/Cy5 on C181 and C324; copies: 1;1; label: biotin on annealed DNA.

Data set [3] addresses T2, His6SumoMBP-U2AF1;U2AF2 Cy3/Cy5 (human;human, UniProt Q01081;P26368-2 1-188;85-342, C67S|A181C;C305A;Q324C). The data set is described as follows: smFRET; RNA tethered; more open than DEK(-3U); Anisotropy: 150 mM NaCl, 25 mM HEPES pH 6.8, 0.5 mM TCEP, 3% glycerol, 20 uM ZnCl2, 0.2 U/ul SUPERase-In; smFRET: 25 mM HEPES pH 7.0, 150 mM KCl, 0.01% octaethylene glycol monododecyl ether, 0.2 mM TCEP, 6 mM BME, 1.5 mM Trolox, oxygen scavenger, room temperature, excess U2AF1 (1000 nM) with heterodimer. To be noted: protein: recombinant;recombinant; tags: N-terminal His6-SUMO-MBP with AAA linker; C-terminal extra Ala;GST cleaved; Cy3/Cy5 on C181 and C324; copies: 1;1; label: biotin on annealed DNA.

The target of data set [4] is T1, His6SumoMBP-U2AF1 S34F;U2AF2 Cy3/Cy5. The data set is described as follows: smFRET; RNA tethered; 25% closed; Anisotropy: 150 mM NaCl, 25 mM HEPES pH 6.8, 0.5 mM TCEP, 3% glycerol, 20 uM ZnCl2, 0.2 U/ul SUPERase-In; smFRET: 25 mM HEPES pH 7.0, 150 mM KCl, 0.01% octaethylene glycol monododecyl ether, 0.2 mM TCEP, 6 mM BME, 1.5 mM Trolox, oxygen scavenger, room temperature, excess U2AF1 (1000 nM) with heterodimer. To be noted: protein: recombinant;recombinant; tags: N-terminal His6-SUMO-MBP with AAA linker; C-terminal extra Ala;GST cleaved; Cy3/Cy5 on C181 and C324; copies: 1;1; label: biotin on annealed DNA.

The target of data set [5] is His6SumoMBP-U2AF1;U2AF2 Cy3/Cy5 D215R/G319R (human;human, UniProt Q01081;P26368-2 1-188;85-342, C67S|A181C;D215R;C305A;G319R;Q324C). The data set is described as follows: smFRET; RNA tethered; about half closed; Anisotropy: 150 mM NaCl, 25 mM HEPES pH 6.8, 0.5 mM TCEP, 3% glycerol, 20 uM ZnCl2, 0.2 U/ul SUPERase-In; smFRET: 25 mM HEPES pH 7.0, 150 mM KCl, 0.01% octaethylene glycol monododecyl ether, 0.2 mM TCEP, 6 mM BME, 1.5 mM Trolox, oxygen scavenger, room temperature, excess U2AF1 (1000 nM) with heterodimer. To be noted: protein: recombinant;recombinant; tags: N-terminal His6-SUMO-MBP with AAA linker; C-terminal extra Ala;GST cleaved; Cy3/Cy5 on C181 and C324; copies: 1;1; label: biotin on annealed DNA.

For data set [6], the target named is T2, His6SumoMBP-U2AF1;U2AF2 Cy3/Cy5. The data set is described as follows: smFRET; RNA tethered; open 0.4 FRET; Anisotropy: 150 mM NaCl, 25 mM HEPES pH 6.8, 0.5 mM TCEP, 3% glycerol, 20 uM ZnCl2, 0.2 U/ul SUPERase-In; smFRET: 25 mM HEPES pH 7.0, 150 mM KCl, 0.01% octaethylene glycol monododecyl ether, 0.2 mM TCEP, 6 mM BME, 1.5 mM Trolox, oxygen scavenger, room temperature, excess U2AF1 (1000 nM) with heterodimer. To be noted: protein: recombinant;recombinant; tags: N-terminal His6-SUMO-MBP with AAA linker; C-terminal extra Ala;GST cleaved; Cy3/Cy5 on C181 and C324; copies: 1;1; label: biotin on annealed DNA.

T1 sequence (Q01081 1-188 S34F/C67S, chain 1 of 2): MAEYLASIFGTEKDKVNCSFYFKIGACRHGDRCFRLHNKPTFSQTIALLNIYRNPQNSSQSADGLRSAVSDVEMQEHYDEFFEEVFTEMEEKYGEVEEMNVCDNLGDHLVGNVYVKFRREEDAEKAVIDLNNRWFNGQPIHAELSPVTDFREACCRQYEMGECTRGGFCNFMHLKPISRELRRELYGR
T1 sequence (P26368 85-342 A181C/C305A/Q324C, chain 2 of 2): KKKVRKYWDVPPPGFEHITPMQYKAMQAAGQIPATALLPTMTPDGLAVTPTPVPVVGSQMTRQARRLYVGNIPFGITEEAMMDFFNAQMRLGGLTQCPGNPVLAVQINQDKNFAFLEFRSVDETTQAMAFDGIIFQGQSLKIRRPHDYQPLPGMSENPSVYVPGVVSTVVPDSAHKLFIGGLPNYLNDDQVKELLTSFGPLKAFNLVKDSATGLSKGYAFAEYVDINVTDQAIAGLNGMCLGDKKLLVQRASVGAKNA
T2 sequence (Q01081 1-188 C67S, chain 1 of 2): as the sequence (Q01081 1-188 S34F/C67S, chain 1 of 2) above, with F34S counted along it
T2 sequence (P26368 85-342 A181C/C305A/Q324C, chain 2 of 2): as the sequence (P26368 85-342 A181C/C305A/Q324C, chain 2 of 2) above
U2AF2 Cy3/Cy5 isolated subunit, sequence (P26368 113-342 A181C/C305A/Q324C): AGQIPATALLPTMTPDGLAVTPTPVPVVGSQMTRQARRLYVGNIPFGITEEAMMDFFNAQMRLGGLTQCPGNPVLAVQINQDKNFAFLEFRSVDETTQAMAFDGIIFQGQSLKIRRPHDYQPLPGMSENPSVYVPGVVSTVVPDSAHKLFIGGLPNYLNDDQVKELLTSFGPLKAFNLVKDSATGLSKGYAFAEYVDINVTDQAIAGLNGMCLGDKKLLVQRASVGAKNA
U2AF1 untagged;U2AF2, sequence (Q01081 1-193, chain 1 of 2): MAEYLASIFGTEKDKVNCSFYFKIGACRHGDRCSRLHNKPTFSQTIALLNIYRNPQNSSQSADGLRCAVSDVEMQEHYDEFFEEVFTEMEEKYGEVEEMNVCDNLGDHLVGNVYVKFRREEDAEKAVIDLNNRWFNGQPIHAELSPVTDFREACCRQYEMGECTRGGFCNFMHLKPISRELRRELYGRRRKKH
U2AF1 untagged;U2AF2, sequence (P26368 other isoform, or with tags, fused parts or gaps |, chain 2 of 2): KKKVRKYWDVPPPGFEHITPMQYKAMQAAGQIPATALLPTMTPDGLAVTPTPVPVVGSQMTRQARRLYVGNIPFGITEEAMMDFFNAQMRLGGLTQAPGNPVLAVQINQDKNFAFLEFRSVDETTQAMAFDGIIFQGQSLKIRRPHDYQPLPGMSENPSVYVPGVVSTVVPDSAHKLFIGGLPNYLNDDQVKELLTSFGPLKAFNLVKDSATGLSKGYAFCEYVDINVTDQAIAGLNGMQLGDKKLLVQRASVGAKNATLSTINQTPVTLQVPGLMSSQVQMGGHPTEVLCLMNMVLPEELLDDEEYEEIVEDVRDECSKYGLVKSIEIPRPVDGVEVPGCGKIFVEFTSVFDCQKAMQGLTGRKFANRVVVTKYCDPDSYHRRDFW
U2AF1 UHM (dZn);U2AF2, sequence (Q01081 43-146 C67S, chain 1 of 2): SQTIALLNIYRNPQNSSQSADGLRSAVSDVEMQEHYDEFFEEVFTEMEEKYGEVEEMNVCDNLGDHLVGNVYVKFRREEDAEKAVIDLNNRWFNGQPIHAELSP
U2AF1 UHM (dZn);U2AF2, sequence (P26368 other isoform, or with tags, fused parts or gaps C67S|, chain 2 of 2): as the sequence (P26368 other isoform, or with tags, fused parts or gaps |, chain 2 of 2) above
His6SumoMBP-U2AF1;U2AF2, sequence (Q01081 1-188 C67S, chain 1 of 2): as the sequence (Q01081 1-188 S34F/C67S, chain 1 of 2) above, with F34S counted along it
His6SumoMBP-U2AF1;U2AF2, sequence (P26368 other isoform, or with tags, fused parts or gaps C67S|, chain 2 of 2): as the sequence (P26368 other isoform, or with tags, fused parts or gaps |, chain 2 of 2) above
His6SumoMBP-U2AF1;U2AF2 Cy3/Cy5 D215R/G319R, sequence (Q01081 1-188 C67S, chain 1 of 2): as the sequence (Q01081 1-188 S34F/C67S, chain 1 of 2) above, with F34S counted along it
His6SumoMBP-U2AF1;U2AF2 Cy3/Cy5 D215R/G319R, sequence (P26368 85-342 A181C/D215R/C305A/G319R/Q324C, chain 2 of 2): as the sequence (P26368 85-342 A181C/C305A/Q324C, chain 2 of 2) above, with D131R, G235R counted along it

By Kd is commonly meant the constant that tells how readily two partners part at equilibrium. Consider CUGUCCCUUUUUUUUCACAGCUCGCGGUUGAG (ssRNA) [Fl-AdML], for which, in the data set with U2AF1 UHM (dZn);U2AF2, the “fold weaker binding affinity (Kd ratio)” value was 35 fold weaker than heterodimer with zinc knuckles. Further, in the data set with U2AF1 untagged;U2AF2, the binding result is given as “binds”. For the same molecule, in the data set with His6SumoMBP-U2AF1;U2AF2, the Kd stood at 120 ± 15 nM.

Regarding UACUAAAUUAAUUUCCAGAAAAGAGU (ssRNA, 3' PEG18-DNA conjugate) [DEK(-3C)], the binding result in data set [1], in [2] and in data set [3] was “binds” throughout.

For the molecule UCCCUUUUUUUUCCACAGCUCGCGGU (ssRNA, 3' PEG18-DNA conjugate) [AdML tethered], the binding result in data set [4], in data set [5] and in data set [6] was “binds” each time.
